# B1: NR2B-BD: peptide of amino acids 886-1310 of the NR2B C-terminal domain that binds RasGRF1; used as NusA or EGFP fusion (protein)
# chain: SPTATMNNTHSNILRLLRTAKNMANLSGVNGSPQSALDFIRRESSVYDISEHRRSFTHSDCKSYNNPPCEENLFSDYISEVERTFGNLQLKDSNVYQDHYHHHHRPHSIGSTSSIDGLYDCDNPPFTTQPRSISKKPLDIGLPSSKHSQLSDLYGKFSFKSDRYSGHDDLIRSDVSDISTHTVTYGNIEGNAAKRRKQQYKDSLKKRPASAKSRREFDEIELAYRRRPPRSPDHKRYFRDKEGLRDFYLDQFRTKENSPHWEHVDLTDIYKERSDDFKRDSVSGGGPCTNRSHLKHGTGEKHGVVGGVPAPWEKNLTNVDWEDRSGGNFCRSCPSKLHNYSSTVAGQNSGRQACIRCEACKKAGNLYDISKDNSLQELDQPAAPVAVTSNASSTKYPQSPTNSKAQKKNRNKLRRQHSYDTFVDL
# modifications: left off: small tags and cut ends
# notes: used as NusA or EGFP fusion
# Tested on: NMDA receptor
# Assay: evoked NMDA EPSCs in organotypic cultures of hippocampal slices
# Type: cell-based, rat
# Protocol: Organotypic cultures of hippocampal slices were prepared as described (Becq, H., et al. (1999) J. Neurosci. Res. 58, 553-566) according to modified technique of Stoppini et al. (J. Neurosci. Methods 37, 173-182 (1991)). Hippocampal slices (400 μm) were cut from postnatal 7-day-old rat brains and incubated in culture medium in 5% CO2. Infections were performed on the 6th day of slice incubation by local pressure injection of virus via a patch pipette (tip diameter ˜1 μm) into the CA1 region of the hippocampus.
# For electrophysiological recordings, slices were placed in a recording chamber and perfused with ACSF including in mM: 119 NaCl, 2.5 KCl, 2 CaCl2, 2 MgCl2, 26 NaHCO3, 1 NaH2PO4, 11 glucose, 0.01 bicuculline, 0.01 CNQX, 0.002 2-chloroadenosine (pH 7.4), in 5% CO2/95% O2. Synaptic responses were evoked by bipolar electrode with monophasic voltage pulses (1-10 V, 200 μs). The stimulating electrodes were placed over Schaeffer collateral fibers. NMDA evoked EPSCs were recorded at different holding potentials before, during, and after ifenprodil application in order to measure the I-V relationship. For analysis, at least 5 NMDA-evoked EPSCs were averaged for every experimental condition.
molecule,measurement,value
B1,portion of the ifenprodil-sensitive component of the evoked EPSCs,Neither of the expressed peptides decreased

# — patent publication US7425614B2, “Neuroprotective therapeutics preventing ERK/MAPK activation through the NMDA receptor” (Children's Medical Center Corporation, priority 2003, dated 2008)
